According to patent US20190216790A1, “Methods for Treating Pruritis” (The Regents of the University of California, priority 2016, published 2019):
Entries after “also recorded” stand apart in the source; their conditions may differ.

Tested on: mice
Experiment: CXCL1-induced itch, subcutaneous injection in mice
Assay type: in vivo
From the text: CXCL1 is the mouse homologue for human Interleukin-8, which is increased in several inflammatory skin disorders including psoriasis and atopic dermatitis. […] Importantly, CXCL1-induced itch is entirely dependent on neutrophils (FIG. 1B). […] In addition, loss of TRPA1 results in reduced CXCL1 expression in skin. Blocking/ablation of the high-affinity LTB4 receptor, BLT1, also results in reduction of CXCL1-induced itch (FIG. 1C). Both LTB4 and reactive oxygen species (ROS) are produced by neutrophils and have been proposed to directly activate neurons and induce itch. It is shown here that neutrophils also play a key role in chronic itch. In a mouse model of atopic dermatitis, depletion of neutrophils during induction of itch drastically reduces itch and inflammatory responses (FIG. 1D). It is shown here that CXCL1 is increased in multiple mouse models of chronic itch, and LTB4 is increased in skin of mice with atopic dermatitis. It is proposed that neutrophils activate sensory neurons through the ion channel TRPA1 in a CXCL1/BLT1/LTB4-dependent fashion (FIG. 1E).
FIG. 1A-1E. […] (D) Depletion of neutrophils in a mouse model of atopic dermatitis greatly reduces itch. (E) Model showing proposed interactions. Atopic dermatitis results in increased levels of IL8 (humans) or CXCL1 (mice) that recruits neutrophils. Neutrophils activate sensory neurons to promote itch in a TRPA1 and BLT1-dependent manner. For all data, one-way ANOVA was performed with a Tukey-Kramer post hoc statistical analysis. Tukey-Kramer values are reported and only p<0.05 were considered significant; **=p<0.005; ***=p<0.0005; n.s.=not significant.

B1: CXCL1: a neutrophil chemoattractant and natural ligand for CXCR2; the mouse homologue for human Interleukin-8 (protein, UniProt P12850 25-96, looked up)
Growth-regulated alpha protein: APIANELRCQCLQTMAGIHLKNIQSLKVLPSGPHCTQTEVIATLKNGREACLDPEAPLVQKIVQKMLKGVPK
Depletion of neutrophils (FIG. 1B)
  CXCL1-induced itch: abolishes CXCL1-induced itch
Injected subcutaneously in mice (FIG. 1A)
  itch: robustly induces itch; also recorded: induces robust itch
Mice lacking TRPA1 (FIG. 1A)
  itch responses to CXCL1: reduced itch responses
Mice lacking the LTB4 receptor (BLT1) (FIG. 1C)
  itch responses to CXCL1 injection: reduced itch responses
